Reference: patent US7049080B2, “Process for detecting serine/threonine kinase activity” (priority 2000, dated 2006)
Values belong to the compound of their own block, whether it stands above or below them. Non-standard residues stand in square brackets, D forms with d. No end group written: not given here. pY = N[C@@H](Cc1ccc(OP(=O)(O)O)cc1)C(=O)O

How the values were obtained:
[1] = test system: NEB antibody #9251; assay: FP controls conjugate/high/low (Example 8); format: binding, rabbit; settings: Low: P1*°-Tamra + NEB ab (1:20) + competitor 200 nM, 0 h
Experimental: The following reagents have been used (explanations later on): Hepes buffer, MgCl2 (10 mM), ATP (20 μM), P1^∘ peptide (100 μM), polyclonal antibody NEB #9251 (1:20), P1*^∘-TAMRA (5 nM), Pluronic (0.1%), BSA (0.01%), MKK7 at (0.04, 0.08 and 0.2 μM), EDTA (10 mM) (all final conc.).
The enzyme reactions were performed in Eppendorf reaction tubes at RT. Aliquots of 20 μl were withdrawn from the reactions at different time points and mixed with 10 μl STOP solution. The stopped reactions were incubated at RT for at least 30 min and measured by Fluorescence Polarization.
Bis-phosphorylated peptide P1*^∘ can be used as competitor, resulting in free labelled ligand called “low” or “negative control”. This can be seen in the following table 1.

[2] = test system: polyclonal phospho-JNK antibody NEB #9251; assay: Binding of polyclonal phospho-JNK antibody to TAMRA-labelled peptides (fluorescence polarization); parameters: species or system rabbit; settings: control
Text: The polarization values dramatically increase when using the double-phosphorylated peptide substrate P1*^∘ in contrast to mono-phosphorylated labelled peptide P1^∘ (sequence see above).
Measurement of the Binding Affinity (KD) of Antibody NEB #9251:
This polyclonal antibody detects all three isoforms of the SAPK1/JNK proteins only when they are activated by dual phosphorylation at threonine183/tyrosine185. Binding of poly-clonal phospho-JNK antibody (at a dilution of 1:20) from NEB to TAMRA-labelled P1^∘- and P1*^∘ peptides (each 5 nM) was measured by fluorescence polarization.

[3] = target: T1, MKK7 (Homo sapiens, UniProt O14733); assay: Determination of Km for ATP (MKK7 phosphorylation, FP read-out); format: biochemical; settings: MKK7 80 nM, P1° 100 μM, RT
T1 construct: purchased Upstate Biotech 14-366
T1 sequence (O14733 1-419): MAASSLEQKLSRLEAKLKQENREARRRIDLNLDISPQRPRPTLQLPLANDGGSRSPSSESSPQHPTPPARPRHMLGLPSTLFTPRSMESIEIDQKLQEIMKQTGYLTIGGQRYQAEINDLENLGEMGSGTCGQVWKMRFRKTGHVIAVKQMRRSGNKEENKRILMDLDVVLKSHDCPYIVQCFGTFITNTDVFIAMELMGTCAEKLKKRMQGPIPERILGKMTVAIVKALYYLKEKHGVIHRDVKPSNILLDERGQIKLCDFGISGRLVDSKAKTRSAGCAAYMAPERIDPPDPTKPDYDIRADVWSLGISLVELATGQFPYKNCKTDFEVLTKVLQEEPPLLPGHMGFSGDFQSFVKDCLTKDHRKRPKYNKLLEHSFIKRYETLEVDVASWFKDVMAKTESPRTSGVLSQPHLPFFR
Experimental: Efficient phosphorylation of P1^∘ peptide is dependent on the optimal ATP concentration. […] From the detected fluorescence polarization signals, the Michaelis-Menten constant (Km), reflecting the half-maximal phosphorylation rate, was determined for ATP.
Determination of Km for ATP (Read-out: Fluorescence Polarization): […]

[4] = test system: T2, P1° peptide, H-Lys-Phe-Met-Met-Thr-Pro-pTyr-Val-Val-Thr-Arg-NH2
T2 sequence: KFMMTPYVVTR

Compound: H-Lys-Phe-Met-Met-Thr-Pro-pTyr-Val-Val-Thr-Arg-NH2 (H-KFMMTP[pY]VVTR-NH2; SMILES CSCC[C@H](NC(=O)[C@H](Cc1ccccc1)NC(=O)[C@@H](N)CCCCN)C(=O)N[C@@H](CCSC)C(=O)N[C@H](C(=O)N1CCC[C@H]1C(=O)N[C@@H](Cc1ccc(OP(=O)(O)O)cc1)C(=O)N[C@H](C(=O)N[C@H](C(=O)N[C@H](C(=O)N[C@@H](CCCNC(=N)N)C(N)=O)[C@@H](C)O)C(C)C)C(C)C)[C@@H](C)O) [P1^∘]
Fluorescence Polarization [1]: 71.5 mP

Compound: TAMRA-labelled P1^∘-peptide: TAMRA-labelled mono-phosphorylated P1° peptide, control for antibody binding (KFMMTP[pY]VVTR-NH2; not fully specified (residue 5, N-terminus); also: TAMRA label, site not given here)
binding of the polyclonal JNK antibody [2]: no binding

Vmax [3]: 0.28 mP/min
Compound: Nc1ncnc2c1ncn2[C@@H]1O[C@H](COP(=O)(O)OP(=O)(O)OP(=O)(O)O)[C@@H](O)[C@H]1O [ATP]

Compound: MKK7 kinase (Upstate Biotech cat. no. 14-366)
FP, 100 µM P1°, MKK7 0.005 µM, 0 h [4]: 132 mP
FP, 100 µM P1°, MKK7 0.005 µM, 0.5 h [4]: 137 mP
FP, 100 µM P1°, MKK7 0.005 µM, 1 h [4]: 137 mP
FP, 100 µM P1°, MKK7 0.005 µM, 1.5 h [4]: 137 mP
FP, 100 µM P1°, MKK7 0.005 µM, 3 h [4]: 138 mP
FP, 100 µM P1°, MKK7 0.02 µM, 0 h [4]: 135 mP
FP, 100 µM P1°, MKK7 0.02 µM, 0.5 h [4]: 140 mP
FP, 100 µM P1°, MKK7 0.02 µM, 1 h [4]: 141 mP
FP, 100 µM P1°, MKK7 0.02 µM, 1.5 h [4]: 140 mP
FP, 100 µM P1°, MKK7 0.02 µM, 3 h [4]: 140 mP
FP, 100 µM P1°, MKK7 0.08 µM, 0 h [4]: 134 mP
FP, 100 µM P1°, MKK7 0.08 µM, 0.5 h [4]: 138 mP
FP, 100 µM P1°, MKK7 0.08 µM, 1 h [4]: 136 mP
FP, 100 µM P1°, MKK7 0.08 µM, 1.5 h [4]: 128 mP
FP, 100 µM P1°, MKK7 0.08 µM, 3 h [4]: 115 mP
FP, 100 µM P1°, MKK7 0.2 µM, 0 h [4]: 135 mP
FP, 100 µM P1°, MKK7 0.2 µM, 0.5 h [4]: 132 mP
FP, 100 µM P1°, MKK7 0.2 µM, 1 h [4]: 122 mP
FP, 100 µM P1°, MKK7 0.2 µM, 1.5 h [4]: 114 mP
FP, 100 µM P1°, MKK7 0.2 µM, 3 h [4]: 105 mP
FP, 100 µM P1°, MKK7 0.5 µM, 0 h [4]: 135 mP
FP, 100 µM P1°, MKK7 0.5 µM, 0.5 h [4]: 126 mP
FP, 100 µM P1°, MKK7 0.5 µM, 1 h [4]: 115 mP
FP, 100 µM P1°, MKK7 0.5 µM, 1.5 h [4]: 109 mP
FP, 100 µM P1°, MKK7 0.5 µM, 3 h [4]: 107 mP
FP, 100 µM P1°, MKK7 1.0 µM, 0 h [4]: 136 mP
FP, 100 µM P1°, MKK7 1.0 µM, 0.5 h [4]: 120 mP
FP, 100 µM P1°, MKK7 1.0 µM, 1 h [4]: 112 mP
FP, 100 µM P1°, MKK7 1.0 µM, 1.5 h [4]: 105 mP
FP, 100 µM P1°, MKK7 1.0 µM, 3 h [4]: 108 mP
FP, NEB ab in STOP sol., MKK7 0.04 µM, 0 h [4]: 147 mP
FP, NEB ab in STOP sol., MKK7 0.04 µM, 0.5 h [4]: 142 mP
FP, NEB ab in STOP sol., MKK7 0.04 µM, 1 h [4]: 140 mP
FP, NEB ab in STOP sol., MKK7 0.04 µM, 1.5 h [4]: 136 mP
FP, NEB ab in STOP sol., MKK7 0.04 µM, 2 h [4]: 134 mP
FP, NEB ab in STOP sol., MKK7 0.04 µM, 3 h [4]: 138 mP
FP, NEB ab in STOP sol., MKK7 0.08 µM, 0 h [4]: 143 mP
FP, NEB ab in STOP sol., MKK7 0.08 µM, 0.5 h [4]: 139 mP
FP, NEB ab in STOP sol., MKK7 0.08 µM, 1 h [4]: 134 mP
FP, NEB ab in STOP sol., MKK7 0.08 µM, 1.5 h [4]: 122 mP
FP, NEB ab in STOP sol., MKK7 0.08 µM, 2 h [4]: 116 mP
FP, NEB ab in STOP sol., MKK7 0.08 µM, 3 h [4]: 125 mP
FP, NEB ab in STOP sol., MKK7 0.2 µM, 0 h [4]: 148 mP
FP, NEB ab in STOP sol., MKK7 0.2 µM, 0.5 h [4]: 130 mP
FP, NEB ab in STOP sol., MKK7 0.2 µM, 1 h [4]: 114 mP
FP, NEB ab in STOP sol., MKK7 0.2 µM, 1.5 h [4]: 103 mP
FP, NEB ab in STOP sol., MKK7 0.2 µM, 2 h [4]: 99.2 mP
FP, NEB ab in STOP sol., MKK7 0.2 µM, 3 h [4]: 119 mP
FP, NEB ab in reaction, MKK7 0.04 µM, 0 h [4]: 150 mP
FP, NEB ab in reaction, MKK7 0.04 µM, 0.5 h [4]: 128 mP
FP, NEB ab in reaction, MKK7 0.04 µM, 1 h [4]: 126 mP
FP, NEB ab in reaction, MKK7 0.04 µM, 1.5 h [4]: 113 mP
FP, NEB ab in reaction, MKK7 0.04 µM, 2 h [4]: 110 mP
FP, NEB ab in reaction, MKK7 0.04 µM, 3 h [4]: 78.6 mP
FP, NEB ab in reaction, MKK7 0.08 µM, 0 h [4]: 138 mP
FP, NEB ab in reaction, MKK7 0.08 µM, 0.5 h [4]: 122 mP
FP, NEB ab in reaction, MKK7 0.08 µM, 1 h [4]: 106 mP
FP, NEB ab in reaction, MKK7 0.08 µM, 1.5 h [4]: 86.4 mP
FP, NEB ab in reaction, MKK7 0.08 µM, 2 h [4]: 84.5 mP
FP, NEB ab in reaction, MKK7 0.08 µM, 3 h [4]: 65 mP
FP, NEB ab in reaction, MKK7 0.2 µM, 0 h [4]: 137 mP
FP, NEB ab in reaction, MKK7 0.2 µM, 0.5 h [4]: 101 mP
FP, NEB ab in reaction, MKK7 0.2 µM, 1 h [4]: 83.1 mP
FP, NEB ab in reaction, MKK7 0.2 µM, 1.5 h [4]: 78.1 mP
FP, NEB ab in reaction, MKK7 0.2 µM, 2 h [4]: 72.1 mP
FP, NEB ab in reaction, MKK7 0.2 µM, 3 h [4]: 59.4 mP
Km for P1° peptide (read-out: fluorescence polarization) [4]: Km=94 nM±59 nM
phosphorylation of P1° peptide substrate by MKK7 kinase [4]: Efficient phosphorylation of P1° peptide is measured
